Target: Presenilin 1 (mouse (endogenous in primary neurons of …, UniProt P49769 1-467))
Experiment: co-IP

- fold change of co-precipitated Syt-1/PS1, old against young neurons (-KCl): 1.79 fold
B1: Synaptotagmin 1 (natural protein)
chain: MVSASRPEALAAPVTTVATLVPHNATEPASPGEGKEDAFSKLKQKFMNELHKIPLPPWALIAIAIVAVLLVVTCCFCVCKKCLFKKKNKKKGKEKGGKNAINMKDVKDLGKTMKDQALKDDDAETGLTDGEEKEEPKEEEKLGKLQYSLDYDFQNNQLLVGIIQAAELPALDMGGTSDPYVKVFLLPDKKKKFETKVHRKTLNPVFNEQFTFKVPYSELGGKTLVMAVYDFDRFSKHDIIGEFKVPMNTVDFGHVTEEWRDLQSAEKEEQEKLGDICFSLRYVPTAGKLTVVILEAKNLKKMDVGGLSDPYVKIHLMQNGKRLKKKKTTIKKNTLNPYYNESFSFEVPFEQIQKVQVVVTVLDYDKIGKNDAIGKVFVGYNSTGAELRHWSDMLANPRRPIAQWHTLQVEEEVDAMLAVKK
